Test results taken from patent US8629241B2, “Alpha helical mimics, their uses and methods for their production” (The University of Queensland, priority 2004, dated 2014).
Like-named read-outs stand apart in the source and are kept apart here. Values belong to the molecule of their own block, whether it stands above or below them. Where a SMILES comes first, the peptide text is derived from it. Bridges are numbered along the chain shown (N, C = ends). Where no end group is shown, it is not given here. [ ]: non-standard residue; d: D form. NPhGly = O=C(O)CNc1ccccc1; Orn = NCCC[C@H](N)C(=O)O

Format: physicochemical
Conditions: for percentage helicities: equation 2b with k˜4, assuming 8 has 100% helicity; for [θ]207: molar elipticity at 207 nm; for θ222/θ208 / [θ]192 / [θ]208 / [θ]222: Table 8; for [θ]192 / [θ]208 / [θ]222: one or more cyclic pentapeptide modules versus linear peptides; for % helicity: fH × 100, [θ∞H]222 = −44000, k = 2.6
Procedure: Circular Dichroism (CD) was performed on peptides having SEQ ID NOs: 8 to 14 and 18 to 31, using methods described above. The molar elipticities at 222 nm, 208 nm and 190 nm, ratios of elipticities at 222 nm/208 nm and relative helicity are shown in Tables 6 and 7.
Assuming that mean alpha helix content (fH) is linearly related to elipticity at 222 nm, or in our case 215 nm ([θ]obs215), then the equation for calculating helix content is: fH=([θ]obs215−[θ]C)/([θ]∞215−[θ]C) (1) Luo and Baldwin^22 determined that the random coil ([θ]C) and infinite alpha helix ([θ]∞222) molar elipticities are temperature dependent based on the equations: [θ]C=2220−53T (2a) [θ]∞215=(−44000+250T)(1−k/Np) (2b) where T is temperature in degrees Celsius, Np is the number of peptide units, and k is a finite length correction.
CD was performed on peptides having one [SEQ ID NO: 8] or more than one modular macrocycle [SEQ ID NOs: 46 and 47], as compared with corresponding linear peptides, Ac[KARAD]n—NH2 where n=1 [SEQ ID NO: 14], n=2 [SEQ ID NO: 54] and n=3 [SEQ ID NO: 55]. The molar elipticities at 222 nm, 208 nm and 190 nm, ratios of elipticities at 222 nm/208 nm and percentage helicity are shown in Table 8.
CD experiments were performed on a Jasco Model J-710 spectropolarimeter which was routinely calibrated with (1S)-(+)-10-camphorsulfonic acid. Temperature control was achieved using a Neslab RTE-111 circulating water bath. Spectra were recorded in a 0.1 cm Jasco cell between 310-185 nm at 50 nm/min with a band width of 1.0 nm, response time of 2 sec, resolution step width of 0.1 nm and sensitivity of 20, 50 or 100 mdeg. Each spectrum represents the average of 5 scans with smoothing to reduce noise. Peptide samples for CD spectroscopy were dissolved in distilled water (˜1 mg/mL). Each stock solution was diluted to a final concentration of 50 μM in 10 mM sodium phosphate buffer (pH7.4), with or without additives (2,2,2-trifluoroethanol (TFE) or guanidine.HCl). Guanidine.HCl denaturation experiments were performed according to Creighton^105.
1D ^1H NMR spectra were then recorded with presaturation and a relaxation delay (d1) of 30 seconds to allow for full relaxation of peptide and DSS^1H signals to facilitate accurate integration of proton signals with S/N>250:1. This method provides reproducible concentrations within ±2%.
CD data in ellipticity was converted to mean peptide ellipticity using the equation: [θ]=θ/(10×C×Np×1) where θ is the ellipticity in millidegrees, C is the peptide molar concentration (M), 1 is the cell path length (cm), and Np is the number of peptide units (ie. pentapeptides […], 10 & 11 Np=5, 12 Np=4.)
Relative helicities were employed to allow scaling of compounds by dividing the [θ]obs215(8)/[θ]obs215(x) for pentapeptides, and [θ]obs215(24)/[θ]obs215(x) for hexapeptides.

[1] = cyclic hexapeptides 23-31, 10 mM phosphate buffer pH 7.4 at 25° C
[2] = θ215 relative to SEQ ID NO: 24, 10 mM phosphate buffer pH 7.4 at 25° C
[3] = [θ]215 relative to SEQ ID NO: 8, 10 mM phosphate buffer, pH 7.4, 25° C
[4] = molar elipticity at 190 nm, 10 mM phosphate buffer, pH 7.4, 25° C
[5] = 10 mM phosphate buffer, pH 7.4, 25° C
[6] = molar elipticity at 215 nm, 10 mM phosphate buffer, pH 7.4, 25° C
[7] = ratio of elipticities, 10 mM phosphate buffer, pH 7.4, 25° C

Molecule: Ac-(cyclo-2,6)-R[KAMAD]-NH2 (Ac-RKAMAD-NH2; lactam 2-6; SMILES CSCC[C@@H]1NC(=O)[C@H](C)NC(=O)[C@@H](NC(=O)[C@H](CCCNC(=N)N)NC(C)=O)CCCCNC(=O)C[C@@H](C(N)=O)NC(=O)[C@H](C)NC1=O) [SEQ ID NO: 25]
Molar ellipticity at 207 nm [1]: −12296 deg.cm^2.dmol^−1.residue^−1
[θ]190 [1]: 38464 deg.cm^2.dmol^−1.residue^−1
[θ]215 [1]: −11853 deg.cm^2.dmol^−1.residue^−1
θ215/θ207 [1]: 0.96
percentage helicities: 73%
Relative helicity [2]: 0.80

Molecule: Ac-(cyclo-2,6)-R[KGSAD]-NH2 (Ac-RKGSAD-NH2; lactam 2-6; SMILES CC(=O)N[C@@H](CCCNC(=N)N)C(=O)N[C@H]1CCCCNC(=O)C[C@@H](C(N)=O)NC(=O)[C@H](C)NC(=O)[C@H](CO)NC(=O)CNC1=O) [SEQ ID NO: 29]
Molar ellipticity at 207 nm [1]: −6975 deg.cm^2.dmol^−1.residue^−1
[θ]190 [1]: 12831 deg.cm^2.dmol^−1.residue^−1
[θ]215 [1]: −4810 deg.cm^2.dmol^−1.residue^−1
θ215/θ207 [1]: 0.69
Relative helicity [2]: 0.32

Molecule: Ac-(cyclo-1,5)-[KARAE]-NH2 (Ac-KARAE-NH2; lactam 1-5; SMILES CC(=O)N[C@H]1CCCCNC(=O)CC[C@@H](C(N)=O)NC(=O)[C@H](C)NC(=O)[C@H](CCCNC(=N)N)NC(=O)[C@H](C)NC1=O) [SEQ ID NO: 10]
Relative helicity [3]: 0.08
[θ]190 [4]: −10611 deg.cm^2.dmol^−1.residue^−1
[θ]207 [5]: −3393 deg.cm^2.dmol^−1.residue^−1
[θ]215 [6]: −1068 deg.cm^2.dmol^−1.residue^−1
θ215/θ207 [7]: 0.31

Molecule: Ac-(cyclo-1,5)-[OARAE]-NH2 (Ac-[Orn]ARAE-NH2; lactam 1-5; SMILES CC(=O)N[C@H]1CCCNC(=O)CC[C@@H](C(N)=O)NC(=O)[C@H](C)NC(=O)[C@H](CCCNC(=N)N)NC(=O)[C@H](C)NC1=O) [SEQ ID NO: 18]
Relative helicity [3]: 0
[θ]190 [4]: −16228 deg.cm^2.dmol^−1.residue^−1
[θ]207 [5]: −3368 deg.cm^2.dmol^−1.residue^−1
[θ]215 [6]: 741 deg.cm^2.dmol^−1.residue^−1
θ215/θ207 [7]: −0.22

Molecule: Cyclo(6-10, 11-15)-NpheGGFT[KARKD][KRKLD]-NH2 ([NPhGly]GGFTKARKDKRKLD-NH2; lactam 6-10, 11-15; N-terminus assumed; SMILES CC(C)C[C@@H]1NC(=O)[C@H](CCCCN)NC(=O)[C@H](CCCNC(=N)N)NC(=O)[C@@H](NC(=O)[C@@H]2CC(=O)NCCCC[C@H](NC(=O)[C@@H](NC(=O)[C@H](Cc3ccccc3)NC(=O)CNC(=O)CNC(=O)CNc3ccccc3)[C@@H](C)O)C(=O)N[C@@H](C)C(=O)N[C@@H](CCCNC(=N)N)C(=O)N[C@@H](CCCCN)C(=O)N2)CCCCNC(=O)C[C@@H](C(N)=O)NC1=O) [SEQ ID NO: 77]
helicity by CD compared to native agonist and antagonist sequences (versus F/Nphe-[…], FIG. 12): increase helicity

Molecule: Ac-(cyclo-2,6)-R[KALAD]-NH2 (Ac-RKALAD-NH2; lactam 2-6; SMILES CC(=O)N[C@@H](CCCNC(=N)N)C(=O)N[C@H]1CCCCNC(=O)C[C@@H](C(N)=O)NC(=O)[C@H](C)NC(=O)[C@H](CC(C)C)NC(=O)[C@H](C)NC1=O) [SEQ ID NO: 24]
Molar ellipticity at 207 nm [1]: −15165 deg.cm^2.dmol^−1.residue^−1
[θ]190 [1]: 46621 deg.cm^2.dmol^−1.residue^−1
[θ]215 [1]: −14798 deg.cm^2.dmol^−1.residue^−1
θ215/θ207 [1]: 0.98
percentage helicities: 91%
Relative helicity [2]: 1.00

Molecule: Ac-(cyclo-1,5)-[EARAO]-NH2 (Ac-EARA[Orn]-NH2; lactam 1-5; SMILES CC(=O)N[C@H]1CCC(=O)NCCC[C@@H](C(N)=O)NC(=O)[C@H](C)NC(=O)[C@H](CCCNC(=N)N)NC(=O)[C@H](C)NC1=O) [SEQ ID NO: 19]
Relative helicity [3]: 0
[θ]190 [4]: −11256 deg.cm^2.dmol^−1.residue^−1
[θ]207 [5]: −1917 deg.cm^2.dmol^−1.residue^−1
[θ]215 [6]: 2442 deg.cm^2.dmol^−1.residue^−1
θ215/θ207 [7]: −1.27

Molecule: H-(cyclo-1,5)-[KARAD]-NH2 (H-KARAD-NH2; lactam 1-5; SMILES C[C@@H]1NC(=O)[C@H](CCCNC(=N)N)NC(=O)[C@H](C)NC(=O)[C@@H](N)CCCCNC(=O)C[C@@H](C(N)=O)NC1=O) [SEQ ID NO: 21]
Relative helicity [3]: 0.06
Relative helicity ([θ]215 relative to SEQ ID NO: 8, in 0.001 M NaOH pH 10): 0.2
[θ]190 [4]: 1355 deg.cm^2.dmol^−1.residue^−1
[θ]190 (molar elipticity at 190 nm, in 0.001 M NaOH pH 10): 8452 deg.cm^2.dmol^−1.residue^−1
[θ]207 [5]: −2228 deg.cm^2.dmol^−1.residue^−1
[θ]207 (in 0.001 M NaOH pH 10): −3327 deg.cm^2.dmol^−1.residue^−1
[θ]215 [6]: −812 deg.cm^2.dmol^−1.residue^−1
[θ]215 (molar elipticity at 215 nm, in 0.001 M NaOH pH 10): −2590 deg.cm^2.dmol^−1.residue^−1
θ215/θ207 [7]: 0.36
θ215/θ207 (ratio of elipticities, in 0.001 M NaOH pH 10): 0.78

Molecule: Ac-(cyclo-2,6)-R[KAAAD]-NH2 (Ac-RKAAAD-NH2; lactam 2-6; SMILES CC(=O)N[C@@H](CCCNC(=N)N)C(=O)N[C@H]1CCCCNC(=O)C[C@@H](C(N)=O)NC(=O)[C@H](C)NC(=O)[C@H](C)NC(=O)[C@H](C)NC1=O) [SEQ ID NO: 23]
Molar ellipticity at 207 nm [1]: −13684 deg.cm^2.dmol^−1.residue^−1
[θ]190 [1]: 39352 deg.cm^2.dmol^−1.residue^−1
[θ]215 [1]: −13537 deg.cm^2.dmol^−1.residue^−1
θ215/θ207 [1]: 0.99
percentage helicities: 83%
Relative helicity [2]: 0.91

θ222/θ208: 0.21
[θ]192: −12237 degcm^2dmol^−1residue^−1
[θ]208: −8552 degcm^2dmol^−1residue^−1
[θ]222: −1836 degcm^2dmol^−1residue^−1
% helicity: 3%
Molecule: CC(=O)N[C@@H](CCCCN)C(=O)N[C@@H](C)C(=O)N[C@@H](CCCNC(=N)N)C(=O)N[C@@H](C)C(=O)N[C@@H](CC(=O)O)C(=O)N[C@@H](CCCCN)C(=O)N[C@@H](C)C(=O)N[C@@H](CCCNC(=N)N)C(=O)N[C@@H](C)C(=O)N[C@@H](CC(=O)O)C(N)=O [SEQ ID NO: 54] (Ac-KARADKARAD-NH2)

Molecule: SEQ ID NO: 55: linear peptide Ac(KARAD)n-NH2 where n=3 (Ac-KARADKARADKARAD-NH2)
θ222/θ208: 0.39
[θ]192: −8024 degcm^2dmol^−1residue^−1
[θ]208: −9788 degcm^2dmol^−1residue^−1
[θ]222: −3852 degcm^2dmol^−1residue^−1
% helicity: 7%

Molecule: Ac-(cyclo-1,5)-[KARAD]-OH (Ac-KARAD-OH; lactam 1-5; SMILES CC(=O)N[C@H]1CCCCNC(=O)C[C@@H](C(=O)O)NC(=O)[C@H](C)NC(=O)[C@H](CCCNC(=N)N)NC(=O)[C@H](C)NC1=O) [SEQ ID NO: 20]
Relative helicity [3]: 0
Relative helicity ([θ]215 relative to SEQ ID NO: 8, in 0.01 M HCl pH 2): 0.06
[θ]190 [4]: −13953 deg.cm^2.dmol^−1.residue^−1
[θ]190 (molar elipticity at 190 nm, in 0.01 M HCl pH 2): −2659 deg.cm^2.dmol^−1.residue^−1
[θ]207 [5]: −5643 deg.cm^2.dmol^−1.residue^−1
[θ]207 (in 0.01 M HCl pH 2): −3195 deg.cm^2.dmol^−1.residue^−1
[θ]215 [6]: 207 deg.cm^2.dmol^−1.residue^−1
[θ]215 (molar elipticity at 215 nm, in 0.01 M HCl pH 2): −625 deg.cm^2.dmol^−1.residue^−1
θ215/θ207 [7]: −0.04
θ215/θ207 (ratio of elipticities, in 0.01 M HCl pH 2): 0.20

Molecule: Ac-(cyclo-1,5)-[EARAK]-NH2 (Ac-EARAK-NH2; lactam 1-5; SMILES CC(=O)N[C@H]1CCC(=O)NCCCC[C@@H](C(N)=O)NC(=O)[C@H](C)NC(=O)[C@H](CCCNC(=N)N)NC(=O)[C@H](C)NC1=O) [SEQ ID NO: 11]
Relative helicity [3]: 0.58
[θ]190 [4]: 20735 deg.cm^2.dmol^−1.residue^−1
[θ]207 [5]: −12803 deg.cm^2.dmol^−1.residue^−1
[θ]215 [6]: −7430 deg.cm^2.dmol^−1.residue^−1
θ215/θ207 [7]: 0.58
